Measured values as given in patent US20120077731A1 (Ablynx, published 2012).

Experiments:
Human soluble IL-6R [1] = target: T1, Human soluble IL-6R (human, UniProt P08887 20-358); experiment: Biacore, binding to IL-6R
T1 construct: Soluble recombinant form; biotinylated in some assays; also called hIL-6R; human IL-6R
T1 sequence (looked up): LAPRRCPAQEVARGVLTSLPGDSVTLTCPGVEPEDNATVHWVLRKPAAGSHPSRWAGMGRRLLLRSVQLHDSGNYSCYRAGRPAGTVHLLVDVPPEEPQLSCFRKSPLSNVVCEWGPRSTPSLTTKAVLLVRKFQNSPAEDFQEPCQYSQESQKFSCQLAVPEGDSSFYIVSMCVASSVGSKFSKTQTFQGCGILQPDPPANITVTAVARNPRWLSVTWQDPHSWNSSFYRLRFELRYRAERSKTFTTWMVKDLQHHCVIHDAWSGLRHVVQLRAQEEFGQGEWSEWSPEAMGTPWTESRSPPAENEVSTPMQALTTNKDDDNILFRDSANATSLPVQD

Human soluble IL-6R [2] = target: T1, Human soluble IL-6R; experiment: Alphascreen IL-6/IL-6R competition (IL-6R 0.3 nM, bio-IL-6 3 nM); row EC50 of the fit table, axis [competitor], M; blocked ligand IL-6
[3] = target: T2, Human membrane IL-6R on cells (human, UniProt P08887 20-468); experiment: cell-based or functional assay
T2 sequence (looked up): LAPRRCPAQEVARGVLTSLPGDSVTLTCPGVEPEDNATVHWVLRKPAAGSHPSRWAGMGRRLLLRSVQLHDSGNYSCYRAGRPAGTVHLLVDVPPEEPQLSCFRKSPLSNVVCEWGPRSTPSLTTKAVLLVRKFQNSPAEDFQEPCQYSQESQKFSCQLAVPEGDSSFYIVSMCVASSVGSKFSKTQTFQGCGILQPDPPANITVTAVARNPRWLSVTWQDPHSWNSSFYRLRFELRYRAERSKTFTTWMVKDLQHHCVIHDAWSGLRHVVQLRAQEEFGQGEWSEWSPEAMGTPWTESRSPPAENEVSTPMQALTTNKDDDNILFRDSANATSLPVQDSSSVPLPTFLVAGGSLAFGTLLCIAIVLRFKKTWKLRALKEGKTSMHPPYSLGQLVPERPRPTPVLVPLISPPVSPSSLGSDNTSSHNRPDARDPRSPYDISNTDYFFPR

Human soluble IL-6R [4] = target: T1, Human soluble IL-6R; experiment: Biacore off-rate, periplasmic extracts
Human soluble IL-6R [5] = target: T1, Human soluble IL-6R; experiment: SPR Biacore 3000, human IL-6R amine-coupled to CM5
Protocol: Remaining reactive groups were inactivated. Nanobody binding was assessed at various concentrations ranging from 0.5 to 50 nM. Each sample was injected for 4 min at a flow rate of 45 μl/min to allow for binding to chip-bound antigen. Next, binding buffer without Nanobody was sent over the chip at the same flow rate to allow for dissociation of bound Nanobody.

Human soluble IL-6R [6] = target: T1, Human soluble IL-6R; experiment: Alphascreen IL-6/IL-6R competition with purified Nanobody; row EC50 of the table, axis [inhibitor], M; blocked ligand IL-6
Human soluble IL-6R [7] = target: T1, Human soluble IL-6R; experiment: SPR (Biacore), binding curves at several concentrations of purified Nanobody on IL-6R
Human plasma sIL-6R [8] = target: T3, Human plasma sIL-6R (human, UniProt P08887 20-355, limits assumed); experiment: plasma potency assay, human plasma, 42 nM IL6; sIL-6R captured on BN-12, bound IL-6 detected; blocked ligand IL-6
T3 construct: also called plasma-derived human IL-6R
T3 sequence (looked up): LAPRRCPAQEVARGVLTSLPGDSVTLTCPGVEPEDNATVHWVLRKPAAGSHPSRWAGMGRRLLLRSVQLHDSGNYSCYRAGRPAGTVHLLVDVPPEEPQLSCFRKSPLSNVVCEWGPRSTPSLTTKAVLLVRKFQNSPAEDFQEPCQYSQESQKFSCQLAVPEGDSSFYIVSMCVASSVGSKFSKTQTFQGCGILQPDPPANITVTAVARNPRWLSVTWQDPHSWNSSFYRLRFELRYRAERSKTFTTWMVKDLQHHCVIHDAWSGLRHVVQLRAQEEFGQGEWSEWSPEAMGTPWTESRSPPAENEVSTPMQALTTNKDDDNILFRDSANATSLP

Cyno plasma sIL-6R [9] = target: T4, Cyno plasma sIL-6R (cynomolgus monkey, UniProt A0A2K5WN54 60-396); experiment: plasma potency assay, cyno plasma ([IL6R]: ~0.4 nM, [IL6]: 2.4 nM printed); sIL-6R captured on BN-12, bound IL-6 detected; blocked ligand IL-6
T4 construct: also called cynomolgus sIL-6R
T4 sequence: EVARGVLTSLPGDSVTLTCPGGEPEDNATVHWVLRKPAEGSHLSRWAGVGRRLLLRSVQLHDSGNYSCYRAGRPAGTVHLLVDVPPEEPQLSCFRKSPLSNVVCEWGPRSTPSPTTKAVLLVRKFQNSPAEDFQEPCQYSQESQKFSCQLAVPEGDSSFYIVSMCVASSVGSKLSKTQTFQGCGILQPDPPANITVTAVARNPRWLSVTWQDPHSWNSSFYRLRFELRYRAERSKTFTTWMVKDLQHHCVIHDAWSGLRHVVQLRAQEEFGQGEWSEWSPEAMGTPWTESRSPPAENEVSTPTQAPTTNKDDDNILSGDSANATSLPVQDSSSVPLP

Human plasma sIL-6R [10] = target: T3, Human plasma sIL-6R; experiment: plasma potency assay, human plasma ([IL6R]: ~0.4 nM, [IL6]: 2.4 nM printed); sIL-6R captured on BN-12, bound IL-6 detected; blocked ligand IL-6
Cyno plasma sIL-6R [11] = target: T4, Cyno plasma sIL-6R; experiment: plasma potency assay, cyno plasma, 2.4 nM IL6; blocked ligand IL-6
Protocol: (§1) All 5 affinity matured Nanobodies and the sequence optimized Nanobody were also tested in a plasma potency assay. […] TMB was used as substrate.

Human plasma sIL-6R [12] = target: T3, Human plasma sIL-6R; experiment: plasma potency assay, human plasma, 42 nM IL6; blocked ligand IL-6
Protocol: as §1

Human plasma sIL-6R [13] = target: T3, Human plasma sIL-6R; experiment: plasma potency assay, human plasma, 2.4 nM IL6; blocked ligand IL-6
Protocol: as §1

Human soluble IL-6R [14] = target: T1, Human soluble IL-6R; experiment: Alphascreen IL-6/IL-6R competition (IL-6R 0.3 nM, bio-IL-6 3 nM); row EC50 of the fit table, axis [competitor], M; blocked ligand IL-6; remark: listed apart in the source

Binder	Kd (Human soluble IL-6R [1])	koff (Human soluble IL-6R [1])	kon (Human soluble IL-6R [1])	Kd (Human soluble IL-6R [7])	IC50 (Human plasma sIL-6R [8])	IC50 (Cyno plasma sIL-6R [9])	IC50 (Human plasma sIL-6R [10])	further results
IL6R81 (VHH) VHH: EVQLVESGGGLVQPGGSLRLSCAASGFTFDDYGMSWVRQAPGRATEWVSAISWNGNNTYYTESMKGRFTISRDNAKNTVYLQMNSLRPEDTAVYYCVKGSTAIVGVPPTYPDEYDYWGQGTLVTVSS	0.4 nM	0.000128 s⁻¹	320000 M⁻¹ s⁻¹	–	–	–	–	IC50 (Human soluble IL-6R [2]): 0.0747 nM
IL6R88 (VHH, tested as periplasmic extract and purified) VHH: EVQLVESGGGLVQPGGSLRLSCAASGFTFDDYGMSWVRQAPGKGTEWVSAISWNGNNTYYTESMKGRFTISRDNAKNTLYLQMNSLRPEDTAVYYCVKGSTAIVGVPPTYPDEYDYWGQGTLVTVSS	–	–	–	–	–	–	–	IC50 values (nM), XG-1 assay [3]: 3.3 nM; koff (Human soluble IL-6R [4]): 0.00026 s⁻¹; Kd (Human soluble IL-6R [5]): 0.9 nM; koff (Human soluble IL-6R [5]): 0.000213 s⁻¹; kon (Human soluble IL-6R [5]): 230000 M⁻¹ s⁻¹; IC50 (Human soluble IL-6R [6]): 0.0727 nM
IL6R82 (VHH) VHH: EVQLVESGGGLVQPGGSLRLSCAASGFTFDDYGMSWVRQAPGKGLEWVSAISWNGNNTYYTESMKGRFTISRDNAKNTVYLQMNSLRPEDTAVYYCVKGSTAIVGVPPTYPDEYDYWGQGTLVTVSS	5.1 nM	0.00314 s⁻¹	619000 M⁻¹ s⁻¹	–	–	–	–	IC50 (Human soluble IL-6R [2]): 0.476 nM
IL6R84 (VHH) VHH: EVQLVESGGGLVQPGGSLRLSCAASGFTFDDYGMSWVRQAPGKGLEWVSAISWNGNNTYYTESMKGRFTISRDNAKNTLYLQMNSLRPEDTAVYYCVKGSTAIVGVPPTYPDEYDYWGQGTLVTVSS	5.4 nM	0.00409 s⁻¹	762000 M⁻¹ s⁻¹	–	–	–	–	IC50 (Human soluble IL-6R [2]): 0.465 nM
IL6R83 (VHH) VHH: EVQLVESGGGLVQPGGSLRLSCAASGFTFDDYGMSWVRQAPGRATEWVSAISWNGNNTYYTESMKGRFTISRDNAKNTLYLQMNSLRPEDTAVYYCVKGSTAIVGVPPTYPDEYDYWGQGTLVTVSS	0.3 nM	0.00012 s⁻¹	350000 M⁻¹ s⁻¹	–	–	–	–	IC50 (Human soluble IL-6R [2]): 0.0779 nM
PMP7C4 (VHH, not shown: c-myc and (His)6 tags) VHH: EVQLVESGGGLVQPGGSLRLSCAASGTTFRINVMAWYRQAPGKGRELVAGIITNGSTSYADSVKGRFTISRDNAKNTLYLQMNSLRPEDTAVYYCAFVTTNSDYDLGRDYWGQGTLVTVSS	–	–	–	0.34 nM	0.9 nM	0.08 nM	0.21 nM	–
PMP7G7 (VHH, expressed with c-myc and (His)6 tags) VHH: EVQLVESGGGLVQPGGSLRLSCAASGTTFKINIMAWYRQAPGKGRELVAGVITGGNTTYADSVKGRFTISRDNAKNTLYLQMNSLRPEDTAVYYCAFVTTNSDYDLGRDYWGQGTLVTVSS	–	–	–	0.56 nM	1.5 nM	0.11 nM	0.22 nM	–
PMP7F4 (VHH) VHH: EVQLVESGGGLVQPGGSLRLSCAASGTTFKVNVMAWYRQAPGKGRELVAGIINGGSTTYADSVKGRFTISRDNAKNTLYLQMNSLRPEDTAVYYCAFVTTNSDYDLGRDYWGQGTLVTVSS	–	–	–	0.48 nM	1.2 nM	0.09 nM	0.24 nM	–
PMP7D6 (VHH, not shown: c-myc and (His)6 tags) VHH: EVQLVESGGGLVQPGGSLRLSCAASGSIFRVNVMAWYRQAPGKGRELVAAVINGGTTTYADSVKGRFTISRDNAKNTLYLQMNSLRPEDTAVYYCAFVTTNSDYDLGRDYWGQGTLVTVSS	–	–	–	0.42 nM	0.8 nM	0.09 nM	0.19 nM	IC50 (Cyno plasma sIL-6R [11]): 0.13 nM; IC50 (Human plasma sIL-6R [12]): 0.95 nM; IC50 (Human plasma sIL-6R [13]): 0.25 nM
PMP7G8 (VHH, expressed with c-myc and (His)6 tags) VHH: EVQLVESGGGLVQPGGSLRLSCAASGSTFRINVMAWYRQAPGKGRELVAGVINDGSTTYADSVKGRFTISRDNAKNTLYLQMNSLRPEDTAVYYCAFVTTNSDYDLGRDYWGQGTLVTVSS	–	–	–	0.95 nM	3.5 nM	0.14 nM	0.34 nM	–
IL6R71 (VHH) VHH: EVQLVESGGGLVQPGGSLRLSCAASGFTFDDYDIGWFRQAPGKGREGVSGISSSDGNTYYADSVKGRFTISSDNAKNTVYLQMNSLRPEDTAVYYCAAEPPDSSWYLDGSPEFFKYWGQGTLVTVSS	0.2 nM	0.000153 s⁻¹	703000 M⁻¹ s⁻¹	–	–	–	–	IC50 (Human soluble IL-6R [14]): 0.153 nM
IL6R75 (VHH, also called ILR7.5; not shown: tag (IL6R201 is called the tagless version of IL6R75)) VHH: EVQLVESGGGLVQPGGSLRLSCAASGFTFSDYDIGWFRQAPGKGREGVSGISSSDGNTYYADSVKGRFTISRDNAKNTLYLQMNSLRPEDTAVYYCAAEPPDSSWYLDGSPEFFKYWGQGTLVTVSS	–	–	–	–	–	–	–	IC50 values (nM), XG-1 assay [3]: 0.04 nM; Kd (Human soluble IL-6R [5]): 0.1 nM; koff (Human soluble IL-6R [5]): 0.0001 s⁻¹; kon (Human soluble IL-6R [5]): 1e+06 M⁻¹ s⁻¹; IC50 (Human soluble IL-6R [6]): 0.0432 nM
IL6R72 (VHH) VHH: EVQLVESGGGLVQPGGSLRLSCAASGFTFSDYDIGWFRQAPGKGREGVSGISSSDGNTYYADSVKGRFTISSDNAKNTVYLQMNSLRPEDTAVYYCAAEPPDSSWYLDGSPEFFKYWGQGTLVTVSS	0.3 nM	0.00018 s⁻¹	543000 M⁻¹ s⁻¹	–	–	–	–	IC50 (Human soluble IL-6R [14]): 0.161 nM
IL6R73 (VHH) VHH: EVQLVESGGGLVQPGGSLRLSCAASGFTFDDYDIGWFRQAPGKGREGVSGISSSDGNTYYADSVKGRFTISRDNAKNTVYLQMNSLRPEDTAVYYCAAEPPDSSWYLDGSPEFFKYWGQGTLVTVSS	0.3 nM	0.000233 s⁻¹	698000 M⁻¹ s⁻¹	–	–	–	–	IC50 (Human soluble IL-6R [14]): 0.0916 nM
IL6R74 (VHH) VHH: EVQLVESGGGLVQPGGSLRLSCAASGFTFDDYDIGWFRQAPGKGREGVSGISSSDGNTYYADSVKGRFTISSDNAKNTLYLQMNSLRPEDTAVYYCAAEPPDSSWYLDGSPEFFKYWGQGTLVTVSS	0.2 nM	0.000122 s⁻¹	767000 M⁻¹ s⁻¹	–	–	–	–	IC50 (Human soluble IL-6R [14]): 0.133 nM
